The sequences below were run on Escherichia coli TOP10 (assay: shrunken log2 fold change of peptide-encoding DNA abundance (4.5 h post-induction vs induction); higher = less antimicrobial activity (less host growth inhibition)). Settings: time post-induction: 4.5 h; library: site-saturation at positions 5, 18, 19, 20.
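Also: peptides expressed intracellularly from a pBAD plasmid library in pooled LB shake-flask culture, induced with 0.3% L-arabinose, DNA abundance read by NGS, three biological replicates, DESeq2 with apeglm shrinkage.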

Row | Sequence | shrunken log2 fold change
1 | RRIRHRPPRLPRPRPRPDMKPRP | -0.0644
2 | RRIRNRPPRLPRPRPRPHDQPRP | 0.0402
3 | RRIRMRPPRLPRPRPRPRCVPRP | 0.581
4 | RRIRTRPPRLPRPRPRPFIVPRP | -0.265
5 | RRIRRRPPRLPRPRPRPRDVPRP | 0.328
6 | RRIRYRPPRLPRPRPRPRFCPRP | -0.17
7 | RRIRPRPPRLPRPRPRPVVGPRP | 0.212
8 | RRIRLRPPRLPRPRPRPQFIPRP | -0.433
9 | RRIRRRPPRLPRPRPRPEPQPRP | 1.03
10 | RRIRFRPPRLPRPRPRPRQLPRP | -0.0618
11 | RRIRIRPPRLPRPRPRPNEKPRP | -0.0849
12 | RRIRNRPPRLPRPRPRPWYDPRP | -0.0695
13 | RRIRYRPPRLPRPRPRPIVFPRP | -0.58
14 | RRIRSRPPRLPRPRPRPYKTPRP | -0.0144
15 | RRIRLRPPRLPRPRPRPMNMPRP | -0.0334
16 | RRIRSRPPRLPRPRPRPQAEPRP | -0.0131
17 | RRIRDRPPRLPRPRPRPIANPRP | 0.274
18 | RRIRFRPPRLPRPRPRPTLWPRP | 0.275
19 | RRIRIRPPRLPRPRPRPMLLPRP | 0.0902
20 | RRIRSRPPRLPRPRPRPERQPRP | 0.1

Row | Sequence | shrunken log2 fold change
21 | RRIRLRPPRLPRPRPRPYFPPRP | -0.802
22 | RRIRVRPPRLPRPRPRPTVKPRP | 0.0641
23 | RRIRLRPPRLPRPRPRPLAAPRP | 0.345
24 | RRIRIRPPRLPRPRPRPGEHPRP | -0.0955
25 | RRIRVRPPRLPRPRPRPYHWPRP | -0.633
26 | RRIRIRPPRLPRPRPRPDPSPRP | -0.0293
27 | RRIRHRPPRLPRPRPRPNMGPRP | -0.0579
28 | RRIRLRPPRLPRPRPRPNYNPRP | -0.74
29 | RRIRRRPPRLPRPRPRPKWIPRP | -0.096
30 | RRIRGRPPRLPRPRPRPVVMPRP | 0.237
31 | RRIRDRPPRLPRPRPRPECSPRP | 0.0314
32 | RRIRERPPRLPRPRPRPTTEPRP | -0.0421
33 | RRIRRRPPRLPRPRPRPHRVPRP | -0.0232
34 | RRIRLRPPRLPRPRPRPPKFPRP | 0.028
35 | RRIRYRPPRLPRPRPRPTPWPRP | -0.145
36 | RRIRFRPPRLPRPRPRPTRQPRP | 0.298
37 | RRIRPRPPRLPRPRPRPYDCPRP | -0.021
38 | RRIRTRPPRLPRPRPRPDNRPRP | -0.0132
39 | RRIRYRPPRLPRPRPRPSKLPRP | -0.917
40 | RRIRRRPPRLPRPRPRPPNTPRP | 0.884

Row | Sequence | shrunken log2 fold change
41 | RRIRTRPPRLPRPRPRPELDPRP | 0.641
42 | RRIRRRPPRLPRPRPRPLEEPRP | 0.597
43 | RRIRERPPRLPRPRPRPTWLPRP | 0.289
44 | RRIRVRPPRLPRPRPRPRFYPRP | 0.112
45 | RRIRPRPPRLPRPRPRPQKRPRP | 0.151
46 | RRIRKRPPRLPRPRPRPYRMPRP | -0.329
47 | RRIRNRPPRLPRPRPRPPWPPRP | 0.387
48 | RRIRSRPPRLPRPRPRPTQGPRP | 0.36
49 | RRIRCRPPRLPRPRPRPMHPPRP | -0.00769
50 | RRIRCRPPRLPRPRPRPQHMPRP | -0.74
51 | RRIRIRPPRLPRPRPRPMDPPRP | -0.347
52 | RRIRLRPPRLPRPRPRPGPHPRP | -0.0887
53 | RRIRKRPPRLPRPRPRPVWMPRP | 0.136
54 | RRIRNRPPRLPRPRPRPRGGPRP | 0.474
55 | RRIRQRPPRLPRPRPRPVATPRP | -0.00506
56 | RRIRIRPPRLPRPRPRPRDSPRP | -0.346
57 | RRIRLRPPRLPRPRPRPFQPPRP | 0.113
58 | RRIRMRPPRLPRPRPRPVPLPRP | -0.0409
59 | RRIRNRPPRLPRPRPRPDDIPRP | 0.0399
60 | RRIRSRPPRLPRPRPRPIYAPRP | 0.0432

Source: the supplement of paper PMC9112550, “Optimization of the antimicrobial peptide Bac7 by deep mutational scanning” (BMC Biology, 2022)
